Test results: patent publication US20100160220A1

Columns and labels:
[1] = target: PTH1R tagged with HA (human) (UniProt Q03431); experiment: PTH ligand incubated with transfected cells for 15 seconds, plasma membrane isolated, bound ligand by Western blot
[2] = target: PTH1R-YFP2 (UniProt Q03431); experiment: YFP protein-fragment complementation assay with PTH1R-YFP2 in living cells
Sequence of PTH1R-YFP2 (Q03431 27-593): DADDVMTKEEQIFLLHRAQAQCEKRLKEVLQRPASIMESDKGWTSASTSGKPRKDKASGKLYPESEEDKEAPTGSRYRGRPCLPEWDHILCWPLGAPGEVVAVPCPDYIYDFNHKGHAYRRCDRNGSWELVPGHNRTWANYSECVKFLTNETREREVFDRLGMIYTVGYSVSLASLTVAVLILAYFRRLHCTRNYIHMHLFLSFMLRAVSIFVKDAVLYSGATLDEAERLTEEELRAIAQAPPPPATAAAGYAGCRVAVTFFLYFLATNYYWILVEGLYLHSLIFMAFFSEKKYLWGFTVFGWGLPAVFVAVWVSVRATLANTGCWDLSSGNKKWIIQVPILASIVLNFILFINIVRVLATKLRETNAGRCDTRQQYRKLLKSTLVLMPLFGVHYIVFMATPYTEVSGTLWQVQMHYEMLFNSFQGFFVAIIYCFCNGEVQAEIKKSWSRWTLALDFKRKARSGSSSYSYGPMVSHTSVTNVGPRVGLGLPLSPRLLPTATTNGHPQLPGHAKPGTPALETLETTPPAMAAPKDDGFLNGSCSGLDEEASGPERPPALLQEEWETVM

Sequence of PTH1R tagged with HA (human) (Q03431 27-593): as above

| reduction of binding of PTH ligands versus vector control (cells overexpressing WT TβRII) [1] [%] | YFP fluorescence intensity relative to WT TβRII (fold of WT TβRII-YFP1) [2] | Substance |
| --- | --- | --- |
| 50 |  | PTH ligand (form not stated, Example 12) (from UniProt P01270 32-65) |
|  | 0.167 | kinase dead TβRII (K277A)-YFP1 (from UniProt P37173 23-567) (receptor) |
